Reference: publication PMC4188090, “Crystallization and preliminary X-ray diffraction analyses of the redox-controlled complex of terminal oxygenase and ferredoxin components in the Rieske nonhaem iron oxygenase carbazole 1,9a-dioxygenase” (Acta Crystallographica. Section F, Structural Biology …, 2014)

B1: ferredoxin (Fd) component of carbazole 1,9a-dioxygenase (CARDO) from Pseudomonas resinovorans CA10, oxidized state (natural protein)
chain: MNQIWLKVCAASDMQPGTIRRVNRVGAAPLAVYRVGDQFYATEDTCTHGIASLSEGTLDGDVIECPFHGGAFNVCTGMPASSPCTVPLGVFEVEVKEGEVYVAGEKK
notes: ferredoxin component (Fd) of carbazole 1,9a-dioxygenase, Pseudomonas resinovorans CA10; histidine-tagged; Holds a Rieske-type [2Fe-2S] cluster (oxidized in this experiment); Called a monomer in the crystal; Construct as in earlier work (Ashikawa et al., 2005; Matsuzawa et al., 2013); also called Fdox; oxidized Fd; source: E. coli BL21(DE3), purified (metal-chelation chromatography, gel filtration)
B2: terminal oxygenase (Oxy) component of carbazole 1,9a-dioxygenase (CARDO) from Janthinobacterium sp. J3, reduced state (enzyme, UniProt Q84II6 1-384, looked up)
chain: MANVDEAILKRVKGWAPYVDAKLGFRNHWYPVMFSKEINEGEPKTLKLLGENLLVNRIDGKLYCLKDRCLHRGVQLSVKVECKTKSTITCWYHAWTYRWEDGVLCDILTNPTSAQIGRQKLKTYPVQEAKGCVFIYLGDGDPPPLARDTPPNFLDDDMEILGKNQIIKSNWRLAVENGFDPSHIYIHKDSILVKDNDLALPLGFAPGGDRKQQTRVVDDDVVGRKGVYDLIGEHGVPVFEGTIGGEVVREGAYGEKIVANDISIWLPGVLKVNPFPNPDMMQFEWYVPIDENTHYYFQTLGKPCANDEERKKYEQEFESKWKPMALEGFNNDDIWAREAMVDFYADDKGWVNEILFESDEAIVAWRKLASEHNQGIQTQAHVSG
notes: terminal oxygenase component (Oxy) of carbazole 1,9a-dioxygenase, Janthinobacterium sp; J3; histidine-tagged; Holds a Rieske-type [2Fe-2S] cluster (reduced in this experiment) and a nonhaem iron centre; Trimer in the crystal; Construct as in earlier work (Ashikawa et al., 2005; Matsuzawa et al., 2013); also called Oxyred; reduced Oxy; source: E. coli BL21(DE3), purified (metal-chelation …)

Experiments:
[1] = target: B2; test: crystal structure; Oxyred and Fdox mixed in a 1:3 molar ratio with 10% glycerol, anaerobic, hanging-drop vapour diffusion at 293 K, 0.1 M sodium cacodylate pH 5.7, 14% (w/v) PEG 3350; dissolved crystals checked by SDS-PAGE and anti-His Western blot; data to 2.25 A, molecular replacement with PDB 2de5 (preliminary); details: both partners purified
[2] = target: the molecule itself; test: as above

| Binder | stoichiometry N [1] | stoichiometry N [2] |
| --- | --- | --- |
| B1 | 2 molecules of the Fd monomer per one Oxy trimer |  |
| B2 |  | 3 |
